Publication PMC4117941 (Genes & Development, 2014)

What was measured:
[1] = target: Mcm3 (HA-Mcm3, subunit of the purified MCM2–7 hexamer) (S. cerevisiae, UniProt P24279 1-971); test: EM, three-dimensional reconstruction
[2] = target: T1, Mcm4 (subunit of the purified MCM2–7 hexamer) (S. cerevisiae, UniProt P30665 1-933); test: EM, three-dimensional reconstruction
T1 sequence: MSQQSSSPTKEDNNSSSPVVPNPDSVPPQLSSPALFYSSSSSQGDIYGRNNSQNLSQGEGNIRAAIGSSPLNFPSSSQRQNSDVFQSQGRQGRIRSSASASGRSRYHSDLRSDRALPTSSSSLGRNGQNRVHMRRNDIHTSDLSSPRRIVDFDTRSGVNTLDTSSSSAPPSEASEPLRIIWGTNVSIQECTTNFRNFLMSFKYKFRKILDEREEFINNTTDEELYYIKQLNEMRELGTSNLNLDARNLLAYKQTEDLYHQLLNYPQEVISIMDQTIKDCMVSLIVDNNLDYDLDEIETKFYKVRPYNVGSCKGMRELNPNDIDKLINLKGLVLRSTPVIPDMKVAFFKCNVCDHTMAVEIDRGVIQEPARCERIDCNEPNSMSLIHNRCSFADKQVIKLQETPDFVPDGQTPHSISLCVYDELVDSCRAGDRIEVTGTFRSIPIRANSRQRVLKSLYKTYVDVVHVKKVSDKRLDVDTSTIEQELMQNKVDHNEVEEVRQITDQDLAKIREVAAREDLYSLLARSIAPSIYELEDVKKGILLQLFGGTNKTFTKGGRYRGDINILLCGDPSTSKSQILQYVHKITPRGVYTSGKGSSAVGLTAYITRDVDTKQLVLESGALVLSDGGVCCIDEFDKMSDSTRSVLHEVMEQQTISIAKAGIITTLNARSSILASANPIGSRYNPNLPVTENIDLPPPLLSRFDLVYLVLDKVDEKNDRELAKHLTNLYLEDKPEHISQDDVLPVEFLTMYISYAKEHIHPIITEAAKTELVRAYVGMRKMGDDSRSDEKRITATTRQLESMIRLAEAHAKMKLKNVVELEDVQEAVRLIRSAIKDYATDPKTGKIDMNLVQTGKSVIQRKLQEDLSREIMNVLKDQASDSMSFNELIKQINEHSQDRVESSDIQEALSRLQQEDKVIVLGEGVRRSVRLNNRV

Sequence of Mcm3 (HA-Mcm3, subunit of the purified MCM2–7 hexamer) (P24279 whole entry): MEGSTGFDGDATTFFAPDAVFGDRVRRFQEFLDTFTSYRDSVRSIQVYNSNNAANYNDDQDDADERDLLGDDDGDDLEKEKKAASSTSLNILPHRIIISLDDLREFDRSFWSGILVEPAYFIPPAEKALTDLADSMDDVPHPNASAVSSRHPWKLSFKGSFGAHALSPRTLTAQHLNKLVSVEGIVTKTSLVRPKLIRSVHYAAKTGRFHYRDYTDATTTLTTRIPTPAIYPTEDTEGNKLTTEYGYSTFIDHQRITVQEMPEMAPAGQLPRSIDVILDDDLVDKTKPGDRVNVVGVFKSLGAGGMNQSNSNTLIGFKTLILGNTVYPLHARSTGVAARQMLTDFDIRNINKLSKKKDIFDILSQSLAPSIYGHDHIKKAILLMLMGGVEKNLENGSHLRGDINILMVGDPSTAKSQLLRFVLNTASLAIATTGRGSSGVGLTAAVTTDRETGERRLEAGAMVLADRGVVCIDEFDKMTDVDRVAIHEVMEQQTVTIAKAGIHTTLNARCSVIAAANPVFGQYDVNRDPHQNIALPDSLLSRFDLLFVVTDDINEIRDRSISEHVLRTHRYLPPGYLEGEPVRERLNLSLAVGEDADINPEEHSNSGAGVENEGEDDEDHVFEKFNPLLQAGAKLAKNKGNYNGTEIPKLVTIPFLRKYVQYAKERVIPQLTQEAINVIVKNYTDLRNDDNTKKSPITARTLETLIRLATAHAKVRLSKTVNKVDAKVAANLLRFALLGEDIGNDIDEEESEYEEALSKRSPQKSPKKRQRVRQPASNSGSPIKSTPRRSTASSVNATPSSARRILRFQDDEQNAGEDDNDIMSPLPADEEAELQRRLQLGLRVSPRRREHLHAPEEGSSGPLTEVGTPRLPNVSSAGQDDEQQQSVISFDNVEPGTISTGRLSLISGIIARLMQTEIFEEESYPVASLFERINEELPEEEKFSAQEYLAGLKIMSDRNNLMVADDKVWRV

B1: Mcm7 (subunit of the purified MCM2–7 hexamer) (natural protein)
chain: MSAALPSIQLPVDYNNLFNEITDFLVTFKQDTLSSDATRNENEDENLDAENIEQHLLEKGPKYMAMLQKVANRELNSVIIDLDDILQYQNEKFLQGTQADDLVSAIQQNANHFTELFCRAIDNNMPLPTKEIDYKDDVLDVILNQRRLRNERMLSDRTNEIRSENLMDTTMDPPSSMNDALREVVEDETELFPPNLTRRYFLYFKPLSQNCARRYRKKAISSKPLSVRQIKGDFLGQLITVRGIITRVSDVKPAVEVIAYTCDQCGYEVFQEVNSRTFTPLSECTSEECSQNQTKGQLFMSTRASKFSAFQECKIQELSQQVPVGHIPRSLNIHVNGTLVRSLSPGDIVDVTGIFLPAPYTGFKALKAGLLTETYLEAQFVRQHKKKFASFSLTSDVEERVMELITSGDVYNRLAKSIAPEIYGNLDVKKALLLLLVGGVDKRVGDGMKIRGDINVCLMGDPGVAKSQLLKAICKISPRGVYTTGKGSSGVGLTAAVMKDPVTDEMILEGGALVLADNGICCIDEFDKMDESDRTAIHEVMEQQTISISKAGINTTLNARTSILAAANPLYGRYNPRLSPLDNINLPAALLSRFDILFLMLDIPSRDDDEKLAEHVTYVHMHNKQPDLDFTPVEPSKMREYIAYAKTKRPVMSEAVNDYVVQAYIRLRQDSKREMDSKFSFGQATPRTLLGIIRLSQALAKLRLADMVDIDDVEEALRLVRVSKESLYQETNKSKEDESPTTKIFTIIKKMLQETGKNTLSYENIVKTVRLRGFTMLQLSNCIQEYSYLNVWHLINEGNTLKFVDDGTMDTDQEDSLVSTPKLAPQTTASANVSAQDSDIDLQDA
- binding result [1]: binds
- binding result [2]: binds
